Measurements from paper PMC3059903 (EMBO Reports, 2011).

Target: laminin β1 LN–LEa1–4 fragment (mouse, UniProt P02469 22-509)
Assay: SPR

Chain of laminin β1 LN–LEa1–4 fragment (P02469 22-509): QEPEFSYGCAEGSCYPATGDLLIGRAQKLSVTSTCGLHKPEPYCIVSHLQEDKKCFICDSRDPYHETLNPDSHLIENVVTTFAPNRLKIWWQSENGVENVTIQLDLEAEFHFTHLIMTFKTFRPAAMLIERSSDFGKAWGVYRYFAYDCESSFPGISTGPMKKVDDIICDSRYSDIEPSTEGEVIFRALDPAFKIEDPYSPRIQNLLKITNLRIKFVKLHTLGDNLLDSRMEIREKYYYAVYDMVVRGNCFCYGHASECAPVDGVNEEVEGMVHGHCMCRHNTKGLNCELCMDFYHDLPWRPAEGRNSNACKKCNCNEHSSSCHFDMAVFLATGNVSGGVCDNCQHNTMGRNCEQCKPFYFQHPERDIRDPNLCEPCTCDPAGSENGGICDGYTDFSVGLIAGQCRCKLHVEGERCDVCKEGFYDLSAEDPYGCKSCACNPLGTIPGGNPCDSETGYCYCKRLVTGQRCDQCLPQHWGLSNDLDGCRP

- Kd: ≥ 5 µM
B1: laminin γ1 LN–LEa1–4 fragment (domain or fragment, mouse, UniProt P02468 34-492, looked up)
chain: AMDECADEGGRPQRCMPEFVNAAFNVTVVATNTCGTPPEEYCVQTGVTGVTKSCHLCDAGQQHLQHGAAFLTDYNNQADTTWWQSQTMLAGVQYPNSINLTLHLGKAFDITYVRLKFHTSRPESFAIYKRTREDGPWIPYQYYSGSCENTYSKANRGFIRTGGDEQQALCTDEFSDISPLTGGNVAFSTLEGRPSAYNFDNSPVLQEWVTATDIRVTLNRLNTFGDEVFNEPKVLKSYYYAISDFAVGGRCKCNGHASECVKNEFDKLMCNCKHNTYGVDCEKCLPFFNDRPWRRATAESASESLPCDCNGRSQECYFDPELYRSTGHGGHCTNCRDNTDGAKCERCRENFFRLGNTEACSPCHCSPVGSLSTQCDSYGRCSCKPGVMGDKCDRCQPGFHSLTEAGCRPCSCDLRGSTDECNVETGRCVCKDNVEGFNCERCKPGFFNLESSNPKGCTP
